B1: Nectin4 peptide 80 (ALLHSKYGL) (peptide)
peptide: ALLHSKYGL
notes: Synthetic nonapeptide of human nectin4; the range counts on nectin4; also called Pep N° 80
B2: antigen peptide N4-145 (VLVPPLPSL) (peptide)
peptide: VLVPPLPSL
notes: Synthetic nonapeptide of human nectin4; the range counts on nectin4
B3: Nectin4 peptide 354 (GVIAALLFC) (peptide)
peptide: GVIAALLFC
notes: as for B2
B4: Nectin4 peptide 35 (GTSDVVTVV) (peptide)
peptide: GTSDVVTVV
notes: as for B2
B5: Nectin4 peptide 351 (VVVGVIAAL) (peptide)
peptide: VVVGVIAAL
notes: as for B2
B6: Nectin4 peptide 443 (RSYSTLTTV) (peptide)
peptide: RSYSTLTTV
notes: as for B2
B7: Nectin4 peptide 239 (ILHVSFLAE) (peptide)
peptide: ILHVSFLAE
notes: as for B2
B8: Nectin4 peptide 137 (FQARLRLRV) (peptide)
peptide: FQARLRLRV
notes: as for B2
B9: Nectin4 peptide 359 (LLFCLLVVV) (peptide)
peptide: LLFCLLVVV
notes: as for B2
B10: Nectin4 peptide 266 (AMLKCLSEG) (peptide)
peptide: AMLKCLSEG
notes: as for B2
B11: Nectin4 peptide 345 (LVSASVVVV) (peptide)
peptide: LVSASVVVV
notes: as for B2
B12: Nectin4 peptide 19 (LLLLASFTG) (peptide)
peptide: LLLLASFTG
notes: as for B2
B13: Nectin4 peptide 215 (SMNGQPLTC) (peptide)
peptide: SMNGQPLTC
notes: as for B2
B14: Nectin4 peptide 21 (LLASFTGRC) (peptide)
peptide: LLASFTGRC
notes: Synthetic nonapeptide of human nectin4; the range counts on nectin4; also called Pep N° 21
B15: Nectin4 peptide 238 (HILHVSFLA) (peptide)
peptide: HILHVSFLA
notes: Synthetic nonapeptide of human nectin4; the number is the start position in nectin4 (the range counts on nectin4)
B16: reference peptide 517 (MAGE-A10), GLYDGMEHL (peptide)
peptide: GLYDGMEHL
notes: Control peptide from the literature, tested here
B17: reference peptide 519 (Tyrosinase), YMDGTMSQV (peptide)
peptide: YMDGTMSQV
notes: Control peptide from the literature, tested here; also called tyrosinase peptide
B18: reference peptide 520 (GnTV), VLPDVFIRC (peptide)
peptide: VLPDVFIRC
notes: Control peptide from the literature, tested here; also called GnTV peptide
B19: Nectin4 peptide 244 (FLAEASVRG) (peptide)
peptide: FLAEASVRG
notes: as for B2
B20: Nectin4 peptide 347 (SASVVVVGV) (peptide)
peptide: SASVVVVGV
notes: as for B2
B21: reference peptide 503 (PR3; Proteinase3), NLSASVATV (peptide)
peptide: NLSASVATV
notes: as for B16
B22: Nectin4 peptide 355 (VIAALLFCL) (peptide)
peptide: VIAALLFCL
notes: as for B2
B23: Nectin4 peptide 357 (AALLFCLLV) (peptide)
peptide: AALLFCLLV
notes: as for B2
B24: Nectin4 peptide 255 (DQNLWHIGR) (peptide)
peptide: DQNLWHIGR
notes: as for B2
B25: Nectin4 peptide 358 (ALLFCLLVV) (peptide)
peptide: ALLFCLLVV
notes: as for B2
B26: reference peptide 515 (MAGE-A3), KVAELVHFL (peptide)
peptide: KVAELVHFL
notes: as for B16
B27: Nectin4 peptide 203 (AVTSEFHLV) (peptide)
peptide: AVTSEFHLV
notes: as for B2

Key:
[1] = target: T1, HLA-A*0201 HLA class I MHC monomer (iTopia Epitope Discovery System, coated on plate) (human); assay: iTopia EDS affinity assay; peptide titration (ED50)
T1 construct: Placeholder peptide stripped; also called HLA-A2; MHC class I monomer

[2] = target: T2, HLA-A*0201 on the CEM.T2 cell line (T2) (human); assay: T2 cell dissociation assay with Brefeldin A, flow cytometry
T2 construct: whole, on cells
Description: (§1) After 3 washes, cells were fixed in PBS supplemented with 2% paraformaldehyde and analyzed by FACS (FACScan, BD Bioscience). The percentage of peptide binding was calculated as follows:
(§2) After 3 washes, T2 cells were incubated for 3 h in serum-free RPMI at 37° C. Binding was then measured by FACS and after 4 h incubation. Percentage of Residual Binding (% RB) was calculated as follows:

[3] = target: T2, HLA-A*0201 on the CEM.T2 cell line (T2); assay: T2 cell HLA-A*0201 stabilization and dissociation, flow cytometry
Description: as §1, §2

[4] = target: T2, HLA-A*0201 on the CEM.T2 cell line (T2); assay: T2 cell HLA-A*0201 stabilization, 100 µM peptide, flow cytometry; % of HBV positive control
Description: as §1

[5] = target: T1, HLA-A*0201 HLA class I MHC monomer …; assay: iTopia EDS multiparametric score (binding, off-rate, affinity)
Excerpt: (§3) Microtiter 96 well plates containing HLA class I MHC monomer loaded with the human β2-microglobulin and a “placeholder” peptide were used to evaluate peptide binding, affinity, and off-rate.
The iTopia system software was used to include, binding, off-rate (T1/2 value) and affinity (ED50 value) data collected for each peptide, in a multiparametric score called iScore.

[6] = target: T1, HLA-A*0201 HLA class I MHC monomer …; assay: overall rank from iTopia EDS and CEM T2 assays on HLA-A*0201
[7] = target: T1, HLA-A*0201 HLA class I MHC monomer …; assay: iTopia EDS affinity assay; peptide titration, printed as Affinity (ED50)
[8] = target: T1, HLA-A*0201 HLA class I MHC monomer …; assay: iTopia EDS off-rate assay at 37 C; time to 50% complex dissociation
Excerpt: as §3
(§4) This assay evaluates the dissociation rate of “binder” peptides as a function of time.

[9] = target: T1, HLA-A*0201 HLA class I MHC monomer …; assay: iTopia EDS peptide binding assay on plate-coated MHC monomer; % of positive control peptide
[10] = target: T1, HLA-A*0201 HLA class I MHC monomer …; assay: iTopia EDS off-rate assay
Description: as §4
The relative stability of each complex was evaluated for a period of 8 h as described in material and methods. Off-rate stability was determined by measuring the dissociation time of the complex (t1/2).

| Binder | EC50 [1] [nM] | CEM.T2 % Residual Binding [2] [%] | binding score [3] | CEM.T2 % Binding [4] [%] | iScore [5] | RANK F-Score [6] | EC50 [7] [nM] | T½ Value [8] [h] | % Binding [9] [%] | t1/2 [10] [h] |
| --- | --- | --- | --- | --- | --- | --- | --- | --- | --- | --- |
| B1 | ~100 | 86 | > 50 % of positive control | 53 | 0.815 | 4 | 1000 | 7.8 | 87 | > 6 |
| B2 | ~100 | 54 | > 50 % of positive control | 76 | 0.783 | 6 | 500 | 7.4 | 67 | > 6 |
| B3 | – | 0 | – | 10 | 0.845 | – | 90 | 6.2 | 61 | – |
| B4 | – | 0 | – | 60 | 0.539 | – | 300 | 2.9 | 63 | – |
| B5 | – | 50 | > 50 % of positive control | 82 | 0.784 | 5 | 30 | 3.4 | 58 | – |
| B6 | – | 0 | – | 37 | 0.521 | – | 300 | 2.4 | 68 | – |
| B7 | – | 0 | – | 10 | 0.51 | – | 200 | 2.3 | 61 | – |
| B8 | – | 72 | – | 30 | 0.66 | – | – | 7.3 | 69 | – |
| B9 | – | 23 | – | 7 | 0.674 | – | 500 | 7.4 | 67 | – |
| B10 | – | 39 | – | 31 | 0.667 | – | 700 | 6.8 | 74 | – |
| B11 | – | 0 | – | 11 | 0.626 | – | 60 | 2.3 | 51 | – |
| B12 | – | 0 | – | 17 | 0.659 | – | 60 | 2.1 | 75 | – |
| B13 | – | 0 | – | 21 | 0.689 | – | 700 | 6.8 | 81 | – |
| B14 | ~100 | 86 | – | 44 | 0.727 | 11 | 600 | 6 | 91 | > 6 |
| B15 | – | 66 | – | 37 | 1.43 | 7 | 60 | 6.7 | 87 | – |
| B16 | – | – | – | – | – | 8 | – | – | – | – |
| B17 | – | – | – | – | – | 3 | – | – | – | – |
| B18 | – | – | – | – | – | 1 | – | – | – | – |
| B19 | – | 0 | – | 12 | 0.533 | – | 700 | 2.8 | 78 | – |
| B20 | – | 0 | – | 40 | 0.708 | – | 200 | 3.7 | 64 | – |
| B21 | – | – | – | – | – | 9 | – | – | – | – |
| B22 | – | 24 | – | 18 | 0.888 | – | 30 | 5.2 | 59 | – |
| B23 | – | 18 | – | 15 | 0.619 | – | 100 | 3.8 | 56 | – |
| B24 | – | 0 | – | 6 | 0.539 | – | 500 | 5.4 | 62 | – |
| B25 | – | 26 | – | 26 | 0.71 | – | 200 | 6.1 | 53 | – |
| B26 | – | – | – | – | – | 10 | – | – | – | – |
| B27 | – | 0 | – | 48 | 0.533 | – | 400 | 3.5 | 64 | – |

Source: patent US20140178394A1 (INSERM INSTITUT NATIONAL DE LA SANTE ET DE LA RECHERCHE …, published 2014)
